Test results reported in patent US20240150494A1 (ROCKEFELLER UNIVERSITY, published 2024).

Key:
[1] = molecular target: T1, IgG1, G0 afucosylated glycoform (antibody not named); assay: sandwich ELISA, IgG titrated
T1 construct: also called GO

[2] = molecular target: T2, anti-NP (4-hydroxy-3-nitrophenylacetyl) antibody clone 3B62 IgG1, afucosylated; assay: SPR, 1:1 Langmuir global kinetic fit, 256 to 16 nM in 2-fold steps
T2 construct: In the FcγRIIIA ELISA it stood as an immune complex with NP-BSA (10:1); also called 3B62 IgG1 G2; monomeric 3B62

B1: B7 (VHH)
VHH: QVQLQESGGGLVQAGGSLRLSCAASGGISRYKTMGWYRQAPGKEREFVAGITWGGSTYYADSVKGRFTISRDNAKNTVYLQMNSLKPEDTAVYYCSVDGGTYADPYHYYWGQGTQVTVSS
notes: also called clone B7; nanobody B7; not shown: His tag and AviTag of the pET26-b(+) construct
- EC50 (read off the curve) [1]: ~0.4 µg/mL
- Kd [2]: 3.76 µM
